In general, Kd refers to the concentration at which binding is half-saturated. Low readings indicate higher affinity, high ones lower affinity.

For this assay, the target named is CXCL12 (Homo sapiens, UniProt P48061). As to the kind of experiment: BLI. Background: In BLI a coated tip is dipped into the sample, and binding shifts an interference pattern.
Sequence of CXCL12 (P48061 22-89): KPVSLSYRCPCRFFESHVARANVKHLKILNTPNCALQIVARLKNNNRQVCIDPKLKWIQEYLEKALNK

B1: miniCXCR4-WRAP truncated extracellular/ligand-binding part fused to designed WRAP (protein)
chain: MEGISIYTSDNYTEEMGSGDYDSMKEPCFREENANFNKIFLPTIYSIIFLTGIVGNGLVILVMGYQKKLRSMTDKYRLHLSVADLLFVITLPFWAVDAVANWYFGNFLCKAVHVIYTVNLYSSVLILAFISLDRYLAIVHATNSQRPRKLLAEKVVYVGVWIPALLLTIPDFIFANVSEADDRYICDRFYPNDLWVVVFQFQHIMVGLILPGIVILSCYCIIISKLSHSKGHQKRKALKTTVILILAFFACWLPYYIGISIDSFILLEIIKQGCEFENTVHKWISITEALAFFHCCLNPILYAFLGAKFKTSAQHALTS
modifications: truncated CXCR4 with designed loops fused to WRAP; biotinylated CXCL12
As to B1, the Kd came to 390 nM.

For the origin of these results see article PMC13730216 (2026).
